For experiment [1], the target named is human BTLA extracellular domain with C-terminal 10xHis tag (human) (UniProt Q7Z6A9). Briefly: BLI (Octet RED96), antibody on AHC biosensor, His-tag-huBTLA in solution. Background: BLI is a label-free optical method that tracks binding on a fibre tip over time.
The target is the same in experiment [2]. Briefly: BLI (Octet RED96), antibody on AHC biosensor, His-tag-huBTLA in solution; column head prints nM, but Koff/Kon shows the values are in M.

Sequence of human BTLA extracellular domain with C-terminal 10xHis tag (human) (Q7Z6A9 other isoform, or with tags, fused parts or gaps): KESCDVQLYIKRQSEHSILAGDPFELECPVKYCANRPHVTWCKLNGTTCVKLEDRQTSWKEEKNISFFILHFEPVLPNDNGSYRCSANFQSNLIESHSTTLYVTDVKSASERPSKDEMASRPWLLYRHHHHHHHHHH

As a reminder, the koff is the first-order rate constant of dissociation. A low value points to slow dissociation. By kon is commonly meant a measure of how fast the partners come together. For orientation: Kd means the free concentration of one partner at which half of the binding sites on the other are occupied at equilibrium, for simple one-to-one binding. High values mean weaker binding, low ones tighter binding. On to Icatolimab (antibody), for which, in experiment [1], the koff stood at 0.00124 s⁻¹ and the kon is 621000 M⁻¹ s⁻¹. The substance further showed a Kd in experiment [2] of 2.09 nM.

For the origin of these results see US20260035464A1.
